Reference: the nanobody polyreactivity screen of Harvey et al. (2022)

Assay: yeast display, Sf9 membrane polyspecificity reagent, FACS + sequencing; frameworks hold sequencing errors
Procedure, shortened: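 In a synthetic yeast display library (Saccharomyces cerevisiae BJ5465), nanobody expression was induced with galactose for 36–48 hours. FACS gates were set low and high (top ~1%) using anti-HA fluorescence for expression and streptavidin fluorescence for binding of the Sf9 membrane reagent. Each polyreactivity label is drawn from the gate of origin.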

Sequence	polyreactivity (PSR sort gate)
QVQLVESGGGLVQAGGSLRLTCAASGLIFRRYAMGWYRQAPGKERELVAAINTSGGSTYYADSVKGRFTISRDNAKNTVYLQMNSLKPEDSAVSYCNTVSPYKYDWGKGTQVTVSS	low polyreactivity
QVQLVESGGGLVQAGGSLRLSCAASGNIFSWYAKGWYRQAPGKERELVAAITSGGRTYYADSVKGRFTISRDNAKNTVYLQMNSLKPEDTAVYYCNAVSRLYNRRDYWVQGTQVTVSS	high polyreactivity
QVQLVESGGGLVQAGGSLRLSSAASGLTFAYYTMGWYRQAPGKERELVAAISRSGSGTYYADSVKGRFTISRDNAKNTVYLQMNSLKPEDTAVYYCATRYYLKFLDGYNYWGQGTQVTVSS	high polyreactivity
QVQLVESGGGLVQAGGSLRLSCAASGRTFGYYAMGWYRQAPGKERELVAAISKSGGRTYYADSVKGRFTISRDNAKNTVYLQMNSLKPEDTAVYYCAADGGAIVPYYENYYWGQGTQVTVSS	high polyreactivity
QVQLVESGGGLVQAGGSLRLSCAASGRTFGYYAMGWYRQAPGKERELVASISSSGGNTYYADSVKGRFTISRDNAKNTVYLQMNSLKPEDTAVYYCAATYGWWPRDYYYWGQGTQVTVSS	high polyreactivity
QVQLVESGGGLVQAGGSLRLSCAASGRTFKRYAMGWYRQAPGKERELVAGISRGGNTNYADSVKGRFTISRDNAKNTVYLQMNSLNPEDTAVYYCNKDYSFEYSLRNRDYWGQGTQVTVSS	low polyreactivity
QVQIVESGGGLVQAGVSLRLSCAPSGSTFHLNAMGWYRQAPGKERELVAAISRGGSTYYADSVKGRFTISRDNAKNTVYLQMNRLKPEDTAVYYCNAVWSNFRLGYDYWGQGTQVNVSS	high polyreactivity
QVQLVESGGGLVQAGGSLRLSCAASGSIFSTYAMGWYRQAPGKERELVAAISSSGSTYYADSVKGRFTLSRDNAKNTVYLQMNSLKPEDTAVYYCAAGKYRRTSRYRYDSWGQGTQVTVSS	high polyreactivity
QVQLVESGGGLVQAGGSLRLSCAASGITFWANAMGWERQAPGKERELVASIRSSGGSTYYADSVKGRFTISRDNAKNTVYLQMYSLKPEDTAVYYCYAKRTGPWFLHVPVYYWGQGTQVTVSS	low polyreactivity
QVQLVESGGGLVQAGGSHRLSCAASGSTFEIYAMGWYRQAPGKERELVAAISSGGSTNYADSVKGRFTISRDNAKNSVYLQMNSLKPEDTAVYYCVYAIQFDYWGQGTQVTVSS	low polyreactivity
QVQLVESWGGIVQAGGSLRLSCAASGFIFSRYGMGWYRQAPGKERELVAAISRSAGSTYYADSVKGRFTISRDNAKNTVYLQMNSQKPEETAVYYCAARHGGRATVEPPIQGYGYWGQGTQVTVSS	low polyreactivity
QVQIVESGGGKVQEGGSLRLSCAASGITFTWYDMGWYRQAPGKERELVAAITTDGGSTYYADSVKGRFTISRDNAKNTVYLQINSLKPEDTAVYYCAAAGYVPFPVVYEYWGQGTQVTVSS	high polyreactivity
QVQLVESGVGLVQAGGSLRLSCAASGRTLSKNAMGWYRQAPWKERELVATMSSVGRTNYADSVKGRFTISRDNAKNTVYLQMNSLKPEDTAVYYCAARRFRGSYYWGQGTQVTVSS	high polyreactivity
QVQLVESGGGLVQAGGSLRLSCAASGFTFWRNVMGWYRQAPGKERELVAVISRGGSTNYADSVKGRFTISRDNAKNTVYLQMNRLKPEDTAVYYCPKYARGPSKVDYWGQGTQVTVSS	high polyreactivity
QVQLVESGGGLVQAGGSLRLSCAASGSIFGPNAMGWYRQAPGKERELVAAITNGGRTNYADSVKGRFTISRDNAKNTVYLQMNSLKPEDTAVYYCNKARYGTDDYDYWGQGTQVTVSS	low polyreactivity
QVQLGESGGGLVQAGVSLRLSCAASGSLFYHNAMGWYRHAPGKERELVAAISGRGGSTYYADSVKGRFTISRDNAKNTVYLQMNSLKPEDTAVYYCAADARYQNGGLYYWGQGTQVTVSS	high polyreactivity

Sequence	polyreactivity (PSR sort gate)
QVQLVESGGGLVQAGGSLRLSCAASGSTFDYNAMGWYRQAPGKERELVAAISRGGNTDYADSVKGRFTISRDNAKNSVYLQMNSLKPEDTAVYYCAADALLEWFDVAYFAYEYWGQGTQVTVSS	low polyreactivity
QVQLVESGGGLVQAGGSLRLSCAASGFTFRLYAMGWYRPAPGKERELVARISSGGSTHYADSVKGRFTISRDNAKNTVSLQMNSLKPEDTAVYYCAAGWGYWRSYGSWGQGTQVTVSS	high polyreactivity
QVQLVESGGGLVQAGGSLRLSCAASGRTFRGNAMGWYRQAPGKERELVAAIRWNGGSTYYADSVKGRFTISRDNAKNTVYLQMNSLKPEDTAVYYCAVLRLDYWGQGTQVTVSS	high polyreactivity
QVQLVESGGGLVQAGGSLRLSCAASGFTFYYYAMGWYRQAPGKERELVAGITGSGGRTYYADSVKGRFTISRDNAKNTVYLQMNSLKPEDTAVYYCNARSLWYDYWGQGTQVTVSS	high polyreactivity
QVQLVESGGGLVQAGGSLRLSCAASGITFYGYDMGWYIQAPGKERELVAAISRSGGSTYYADSVKGRFTISRDNAKNTVYLQMNSLKPEDTAVYYCAADKQGYRGRTPYRYYSWGQGTQVTVSS	high polyreactivity
QVQLVESGGGLVQAGVSLRLSCAASGIFRRYAMGWYIQAPGKERELVAAISSNGGSTYYADSVKGRFTISRDNAKNTVYLQMNSLKPEDTAVYYCNADVYVWNYYYWGQGTQVTVSS	high polyreactivity
QVQLVESGGGLVQAGGSLRLSCAASGSTLGYYVMGWYRQAPGKERELVAAITGGGSTDYADSVKGRFTISRDNAKNTVYLQMNSLIPEDTAVYYCAAERTRTGQLFWWGPIYDYWGQGTQVTVSS	low polyreactivity
QVQLVESGGGLVQAGGSLRLSCAASGITFYWYTMGWYRQAPGKERELVADIDGDGGSTYYADSVKGRFTISRDNAKNTVYLQMNSLKPEDTAVYYCAAQVWPWGYDYWGQGTQVTVSS	high polyreactivity
QVQLVESGGGLVQAGGSLRLSCAASGLTFDRYGMGWYRQAPGKERELVAAIDGSGTSTYYADSVKGRFTISRDNAKNTVYLQMNSLKPEDTAVYYCNAYWTYEFPSYDYWGQGTQVTVSS	low polyreactivity
QVQLVESGGGLVQAGGSLRLSCAASGGNFYLYAMGWYIQAPGKEREFVAAISSSGGSTNYADSVKGRFTFSRDNAKNTVYLQMNSLKAEDTAVYYCAARWLAFLDLGKTYEYWGQGTHVTVSS	high polyreactivity
QVQLVESGGGLVQAGGTLRLSCAASGRIFGYNAMGWYRQAPGKERELVAVISTSGTIRYYADSVKGRFTISRVNAKNTVYLQMKSLKPEDTAVYYCAARYYQRANGFGYWGQGTQVTVSS	low polyreactivity
QVQLVESGGGLVQAGGSLRLSCAASGGILPKYAMGWYRQAPGKERELVAAIDGGADSTYYADSVKGRFTISRDIAKNTVYLQLNSLKPEDTAVYFCGADGSLHAGHWRTYGYYYWGQGTQVTVSS	low polyreactivity
QVQLVESGGGLVQAGGSLRLSCAASGRTFAIYAMGWSRQAPGKERELVAAIRWRDGSTYYADSVKGRFTISRDNAKNTVYLQMNSLKPEDTAVYYCAATSRVYVRGSYWKYGYWGQGTQVTVSS	high polyreactivity
QDQLVDSGGGLLQAGGSLRLSCAASGRIFVWNTMGWYRQAPGKERELVAAITSGGSTTFADSVKGRFTISRDNAKYTVYLQMNSLKPEDTAVYYCNTELDLYHPGDDYWGQGTQVTVSS	high polyreactivity
QVQLVESGGGLVQAGGSLRLSCAASGSTFTTNVMGWYRQAPGKERELVAAISWSSGSTYYADSVKGRFTISRDNAKNTVYLQMNSLKPEDTAVYYCAAKSTYVVSKMNYWGQGTQVTVSS	high polyreactivity
QVQLVESGGGLVQAGGSLRLSCAASGSIFVYNAMGWYRQAPGKERELVAAITWSGGNTYYADSVKGRFTISRDNAKNTVYLEMNSLKPEDTAVSYCPAEFWQQGGWWEYDYWGQGTQVTVSS	low polyreactivity
